# From the supplement of paper PMC9942255
# Values joined by “and” are separate entries in the source; they are usually repeats but may differ in a detail not shown here. Identical values can stand only once.
# Test system: Bacillus subtilis DB104 (SP-AmyQ fusion secretion)
# Assay: AmyQ secretion efficiency, weighted average sort bin (1 = best secretion, 10 = worst) (bin number (weighted average, 1-10)); higher = lower secretion efficiency
# In short: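 A B. subtilis DB104 library carrying amyE-integrated fusions of designed signal peptides to mature AmyQ was encapsulated at about 0.3 cells per ~65 nL alginate bead with fluorescein-starch and grown about 13 h at room temperature. Following nile red staining, occupied beads were flow-sorted as large particles into 10 equally populated bins by green/red fluorescence ratio, and the bin amplicons were Illumina-sequenced. The secretion score is the read-frequency-weighted average bin number normalised to beads per bin, leaving out low-abundance sequences.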
row,Sequence,AmyQ secretion efficiency
1,MSKLIMALVILGALGTSYISADSS,7.07
2,MKKSQYFIVFICFFVLFSVHPIATAAADS,3.6
3,MKKTIMSFVAVAALSTTAFVAFTTSTLSGAHASAKEI,4.48
4,MKKAAAVLLSLGLVFGFSYGAGHVDEAKTK,7.45
5,MIVIILLFISIIVFLSVIQPQPD,4.48
6,MFNRLFRVCFLAALIMAFTLPNSVYMQKP,7.02
7,MRSYIKVKKMCFLGLILFVPTALADNS,3.9
8,MRPVFPLILSAVLFLSCFTGARQTEASASKR,3.07
9,MTSSGFTVFLILLLMLTLVVAPKEKAEAASS,1.98
10,MNLRKILLSSALSLGMLVVSAAPVLATSS,1.4
11,MKVLLSALLLLLFAFFTSFTLTLFEPSASGKKL,7.36
12,MHLIRQSQGYCQYTVLIAGCRFNEDQHQAEGENT,6.47
13,MKKIVSILFMFGLVMGFSSFFPSTVFAADK,3.12
14,MKRLLVSLRVWMVFLMNWVTRKRRKKAAAAVY,5.91
15,MKKRLIAPMLLSAASLAFFAMSGSHQAAAY,5.04
16,MKRIRIPMTLALGAALTIAPLSFHSAEEN,7.02
17,MLCVMMLLFSAIASFPVSAQAAPQ,4.18
18,MVKKWYYQSKSSLSVLSTFTYSASAVGV,5.88
19,MKKRRYFIVFICFFVLFSVHPIAAAAADS,3.35
20,MSTSTSSSLISSTVLSTVVISSLLFPGAAGASSK,2.7
21,MKKVMLATALFLGLTPAGANAASK,2.96
22,MKRLLVSLRVWMVFLMNWVTPDRKTAAYAVY,7.68
23,MKVPKTMLLSTAAGLLLSLTATSVSIHYV,5.12
24,MTGSLLSSLAISALSLGLLVSAPTASFAAES,5.96

row,Sequence,AmyQ secretion efficiency
1,MKRMIVRMTLPLLIVCLAFSSFSASTRAASE,2.26
2,MRKNRILALFVLSLGLLSFMVTPVSRASK,8.98
3,MKSSSSALLLLLFAFEPSASGKKL,7.85
4,MKKRFSLIMMTGLLFGLTSPDEKAFAAEK,2.56
5,MKKRQIAPGLLSAASLAFFAMSGSAQAAAY,4.58
6,MKKCLLFLTTIALILSLSTNGFAKNT,6.12
7,MTSGTLWISLLFALTLIFTMAFSNMSAQAAGK,2.62
8,MFNLQVMLALTAAAGLGLTALHSAPAAKAAPL,3.11
9,MRKKRVITCVMAASLTLGSLLPAGYATAAPR,1.69
10,MMKCVICLSLLVFGTTAAHAEET,3.1
11,MIAYFGKCLLLVTIMFLGVLFGMQQVNHG,6.78
12,MKKKQVMLALTAAAGLGLTALHSAPACKAAPL,2.29
13,MKRTWNTTTVCLTALLSVLLVAGSVPFHAEAKKP,2.17
14,MLKKIALTLCPAIVGSLLFFTKPQASAHVS,3.85
15,MKWMCSICCAAVLLAGGAAQARRK,6.49
16,MKKKLAAGLTASAIVGTTLVVTPFEAATI,5.7
17,MKRLLSTLLIGIMLLTFAPSPAATVFPVAFAKQD,1.66
18,MKRKLLSSLAISALSLGLLVSGPTTSFAAES,3.9
19,MKLWMRKTLVVLFTIVTFGLVSPPALMADKP,1.9
20,MKLAKRVSALTPSTTLAITMKAKEL,6.37
21,MKWMCSICCAAVLLAGGAAQCEAV,3.23
22,MKKTIMSFVAVAALSTTAFFAIASAKEI,6.16
23,MKKKRMSFVAVAALSTTAFGAHASAKEI,4.12
24,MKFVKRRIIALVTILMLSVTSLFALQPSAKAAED,2.86

row,Sequence,AmyQ secretion efficiency
1,MKKKIVAGLAVSAVVDEDEEAAPAEAKTI,5.93
2,MKNMSCKLVVSVTLFFSFLTIGPLAHEQNS,5.71
3,MKKVLMAFIICLSLILSVLAAPPSGAKPESV,4.65
4,MKKKQVMLALTAAAGLGLTALHSAPAAKAADD,3.53
5,MKRLLVSLRVWMVFLMNWVTPDRKTSAAAVY,5.14
6,MKRKLLSSLAISALSLGLLVSAPTAWFAAES,9.22
7,MGLGKKLSVAVAASFMSLSISLPGVQQAEG,3.24
8,MRGKSAVLLSLIMLIAGFLISFYFQM,7.22
9,MKVPKTMLLSTAAGLLLSLTATSCSAHYV,4.58
10,MKVCQKSIVRSQRSLIIGTFVISVPFMANAQSD,5.65
11,MKRYRQKCLLLVTIMFLGVLFGMQQANHG,5.69
12,MKVPKTMLLSTAAGLLLSLTATSFSAHYV,6.3
13,MKKLLALLAVVAFAFTDSSKAKAAEA,2.03
14,MKKWMITIAMLILAGIALFVFISPTKSHKT,7.06
15,MFKKLLLATSALTFSLSLVLRRKKKHAKAQEV,5.87
16,MKKRLIAPMLLSAASLAFFAMSGSLQAAAY,5.33
17,MPYLKRVLLLLVTGLAVTATASAQTG,1.97
18,MKKRLIAPMLLSAASLAFFAMAQAAAY,6.11
19,MKKWMITIAMLILAGIALFVFISPVKSHKT,6.53
20,MKNMSCKLVVSVTLFFSFLTIGPLAHSQNS,2.01
21,MLKKKWMVGLLAGCLAAGGFSYNAFHTEN,6.18
22,MKLSVKIAGVLTVAAAAMTAKMYATNKGN,6.32
23,MKKKRLAAGLTASAIVGTTLVVTPAEAATI,4.26 and 3.28
24,MRKNNNLFFFFMTIFAFLTGLMMFGTITAASASPD,3.7

row,Sequence,AmyQ secretion efficiency
1,MFKKHSRSLLIIFLLASAVLAKPIEAHTV,4.1
2,MKLAKRVSALTPSTTLAIVIFAKAKEL,8.15
3,MKLSVKIAGVLTVAAAAMTAKMYATSKGN,6.78
4,MKKQIITATTAVVLGSTLFAGAASMQSI,3.83
5,MKKRLIAPMLLSAASLAFFAMSGSFQAAAY,7.38
6,MKQGKFSVFLILLLMLTLVVAPKEKAEHASS,4.93
7,MRSKKLWISLLFALTLIFTMAFSNMSVVTGAQAAGK,2.11
8,MKIRKILLSSALSFGMLISAVPALMAGT,6.44
9,MFNTLFSVCFLAALIMAFTLPNSVYAQKP,4.02
10,MMKRSSLIMMTGLLFGLTSPAFAAEK,3.11
11,MKKQIITATTAVVLGSTLFASPASAQSI,1.55
12,MKKVLMAFIICLSLILSVLAAPPSGAKAKRR,2.43
13,MKLWMRKTLVVLFTIVTFGLVSPPAAGMADKP,3.4
14,MKVPKTMLLSTAAGLLLSLTATSISAHYV,6.77
15,MLKKIALTLCPAIVGSLLFFTDEDDEEASAHVS,5.14
16,MLKKIALTLCPAIVGSLLFFTAPASAHVK,2.44
17,MKKAAAVLLSLGLVFDESYGAGHVAEAKTK,2.18
18,MKRKKMSGLLLVAVGFSFTQVMVHAGET,6.25
19,MRMLWRSKRLCGLALTLAPCAQAAEP,6.7
20,MKKRRSLIMMTGLLFGLTSPAFAAEK,3.58
21,MMIKQCVICLSLLVFGTTAAHARKR,6.42
22,MMVCMKSIVRFLVSLIIGTFVISVPFMANAQSD,2.06
23,MKLSVKIAGVLTVAAAAMTAKMYQTAKGN,7.71
